# Assay results reported in US20220298218A1 (ANTAG THERAPEUTICS, published 2022).
# Where no end group is shown, it is not given here. [ ]: non-standard residue; d: D form. The star is where a group is joined. C16 diacid = O=C(O)CCCCCCCCCCCCCCC(=O)*; Aib = CC(C)(N)C(=O)O
# T1: human GIP receptor (human, UniProt P48546 22-466)
# T1 sequence (looked up): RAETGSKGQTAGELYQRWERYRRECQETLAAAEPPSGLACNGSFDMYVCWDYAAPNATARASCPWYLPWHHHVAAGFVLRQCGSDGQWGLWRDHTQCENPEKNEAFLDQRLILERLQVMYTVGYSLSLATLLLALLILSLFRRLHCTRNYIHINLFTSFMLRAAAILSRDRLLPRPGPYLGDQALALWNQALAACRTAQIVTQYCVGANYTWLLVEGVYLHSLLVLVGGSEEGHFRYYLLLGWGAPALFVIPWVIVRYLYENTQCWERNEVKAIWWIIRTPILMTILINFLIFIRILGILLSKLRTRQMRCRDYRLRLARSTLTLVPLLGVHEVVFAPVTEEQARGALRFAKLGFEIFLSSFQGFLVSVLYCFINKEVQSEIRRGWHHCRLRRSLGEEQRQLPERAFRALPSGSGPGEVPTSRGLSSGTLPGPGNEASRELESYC
# Molecular target: T1, human GIP receptor
# Assay: cell-based or functional assay
Binder,cAMP agonism % Emax [%],cAMP antagonism [nM],cAMP antagonism % inhib [%],cAMP antagonism pIC50
Ac-EGTFISEYSIAMEKIK(C16 diacid)QQDFVNWLLAQKPSSGAPPPS-OH (SMILES CC[C@H](C)[C@H](NC(=O)[C@H](CO)NC(=O)[C@H](Cc1ccc(O)cc1)NC(=O)[C@H](CCC(=O)O)NC(=O)[C@H](CO)NC(=O)[C@@H](NC(=O)[C@H](Cc1ccccc1)NC(=O)[C@@H](NC(=O)CNC(=O)[C@H](CCC(=O)O)NC(C)=O)[C@@H](C)O)[C@@H](C)CC)C(=O)N[C@@H](C)C(=O)N[C@@H](CCSC)C(=O)N[C@@H](CCC(=O)O)C(=O)N[C@@H](CCCCN)C(=O)N[C@H](C(=O)N[C@@H](CCCCNC(=O)CCCCCCCCCCCCCCC(=O)O)C(=O)N[C@@H](CCC(N)=O)C(=O)N[C@@H](CCC(N)=O)C(=O)N[C@@H](CC(=O)O)C(=O)N[C@@H](Cc1ccccc1)C(=O)N[C@H](C(=O)N[C@@H](CC(N)=O)C(=O)N[C@@H](Cc1c[nH]c2ccccc12)C(=O)N[C@@H](CC(C)C)C(=O)N[C@@H](CC(C)C)C(=O)N[C@@H](C)C(=O)N[C@@H](CCC(N)=O)C(=O)N[C@@H](CCCCN)C(=O)N1CCC[C@H]1C(=O)N[C@@H](CO)C(=O)N[C@@H](CO)C(=O)NCC(=O)N[C@@H](C)C(=O)N1CCC[C@H]1C(=O)N1CCC[C@H]1C(=O)N1CCC[C@H]1C(=O)N[C@@H](CO)C(=O)O)C(C)C)[C@@H](C)CC) [AT635],5,1.12,87,9
VGTFISDYSIAMDKIK(C16 diacid)QQDFVNWLLAQKPSSGAPPPS-OH (N-terminus assumed; SMILES CC[C@H](C)[C@H](NC(=O)[C@H](CO)NC(=O)[C@H](Cc1ccc(O)cc1)NC(=O)[C@H](CC(=O)O)NC(=O)[C@H](CO)NC(=O)[C@@H](NC(=O)[C@H](Cc1ccccc1)NC(=O)[C@@H](NC(=O)CNC(=O)[C@@H](N)C(C)C)[C@@H](C)O)[C@@H](C)CC)C(=O)N[C@@H](C)C(=O)N[C@@H](CCSC)C(=O)N[C@@H](CC(=O)O)C(=O)N[C@@H](CCCCN)C(=O)N[C@H](C(=O)N[C@@H](CCCCNC(=O)CCCCCCCCCCCCCCC(=O)O)C(=O)N[C@@H](CCC(N)=O)C(=O)N[C@@H](CCC(N)=O)C(=O)N[C@@H](CC(=O)O)C(=O)N[C@@H](Cc1ccccc1)C(=O)N[C@H](C(=O)N[C@@H](CC(N)=O)C(=O)N[C@@H](Cc1c[nH]c2ccccc12)C(=O)N[C@@H](CC(C)C)C(=O)N[C@@H](CC(C)C)C(=O)N[C@@H](C)C(=O)N[C@@H](CCC(N)=O)C(=O)N[C@@H](CCCCN)C(=O)N1CCC[C@H]1C(=O)N[C@@H](CO)C(=O)N[C@@H](CO)C(=O)NCC(=O)N[C@@H](C)C(=O)N1CCC[C@H]1C(=O)N1CCC[C@H]1C(=O)N1CCC[C@H]1C(=O)N[C@@H](CO)C(=O)O)C(C)C)[C@@H](C)CC) [AT636],0,1.71,87,8.8
[Aib]GTFISDYSIAMDKIK(C16 diacid)QQDFVNWLLAQKPSSGAPPPS-OH (N-terminus assumed; SMILES CC[C@H](C)[C@H](NC(=O)[C@H](CO)NC(=O)[C@H](Cc1ccc(O)cc1)NC(=O)[C@H](CC(=O)O)NC(=O)[C@H](CO)NC(=O)[C@@H](NC(=O)[C@H](Cc1ccccc1)NC(=O)[C@@H](NC(=O)CNC(=O)C(C)(C)N)[C@@H](C)O)[C@@H](C)CC)C(=O)N[C@@H](C)C(=O)N[C@@H](CCSC)C(=O)N[C@@H](CC(=O)O)C(=O)N[C@@H](CCCCN)C(=O)N[C@H](C(=O)N[C@@H](CCCCNC(=O)CCCCCCCCCCCCCCC(=O)O)C(=O)N[C@@H](CCC(N)=O)C(=O)N[C@@H](CCC(N)=O)C(=O)N[C@@H](CC(=O)O)C(=O)N[C@@H](Cc1ccccc1)C(=O)N[C@H](C(=O)N[C@@H](CC(N)=O)C(=O)N[C@@H](Cc1c[nH]c2ccccc12)C(=O)N[C@@H](CC(C)C)C(=O)N[C@@H](CC(C)C)C(=O)N[C@@H](C)C(=O)N[C@@H](CCC(N)=O)C(=O)N[C@@H](CCCCN)C(=O)N1CCC[C@H]1C(=O)N[C@@H](CO)C(=O)N[C@@H](CO)C(=O)NCC(=O)N[C@@H](C)C(=O)N1CCC[C@H]1C(=O)N1CCC[C@H]1C(=O)N1CCC[C@H]1C(=O)N[C@@H](CO)C(=O)O)C(C)C)[C@@H](C)CC) [AT637],0,2.23,89,8.7
PGTFISDYSIAMDKIK(C16 diacid)QQDFVNWLLAQKPSSGAPPPS-OH (N-terminus assumed; SMILES CC[C@H](C)[C@H](NC(=O)[C@H](CO)NC(=O)[C@H](Cc1ccc(O)cc1)NC(=O)[C@H](CC(=O)O)NC(=O)[C@H](CO)NC(=O)[C@@H](NC(=O)[C@H](Cc1ccccc1)NC(=O)[C@@H](NC(=O)CNC(=O)[C@@H]1CCCN1)[C@@H](C)O)[C@@H](C)CC)C(=O)N[C@@H](C)C(=O)N[C@@H](CCSC)C(=O)N[C@@H](CC(=O)O)C(=O)N[C@@H](CCCCN)C(=O)N[C@H](C(=O)N[C@@H](CCCCNC(=O)CCCCCCCCCCCCCCC(=O)O)C(=O)N[C@@H](CCC(N)=O)C(=O)N[C@@H](CCC(N)=O)C(=O)N[C@@H](CC(=O)O)C(=O)N[C@@H](Cc1ccccc1)C(=O)N[C@H](C(=O)N[C@@H](CC(N)=O)C(=O)N[C@@H](Cc1c[nH]c2ccccc12)C(=O)N[C@@H](CC(C)C)C(=O)N[C@@H](CC(C)C)C(=O)N[C@@H](C)C(=O)N[C@@H](CCC(N)=O)C(=O)N[C@@H](CCCCN)C(=O)N1CCC[C@H]1C(=O)N[C@@H](CO)C(=O)N[C@@H](CO)C(=O)NCC(=O)N[C@@H](C)C(=O)N1CCC[C@H]1C(=O)N1CCC[C@H]1C(=O)N1CCC[C@H]1C(=O)N[C@@H](CO)C(=O)O)C(C)C)[C@@H](C)CC) [AT638],0,14.7,85,7.8
VETFISDYSIAMDKIK(C16 diacid)QQDFVNWLLAQKPSSGAPPPS-OH (N-terminus assumed; SMILES CC[C@H](C)[C@H](NC(=O)[C@H](CO)NC(=O)[C@H](Cc1ccc(O)cc1)NC(=O)[C@H](CC(=O)O)NC(=O)[C@H](CO)NC(=O)[C@@H](NC(=O)[C@H](Cc1ccccc1)NC(=O)[C@@H](NC(=O)[C@H](CCC(=O)O)NC(=O)[C@@H](N)C(C)C)[C@@H](C)O)[C@@H](C)CC)C(=O)N[C@@H](C)C(=O)N[C@@H](CCSC)C(=O)N[C@@H](CC(=O)O)C(=O)N[C@@H](CCCCN)C(=O)N[C@H](C(=O)N[C@@H](CCCCNC(=O)CCCCCCCCCCCCCCC(=O)O)C(=O)N[C@@H](CCC(N)=O)C(=O)N[C@@H](CCC(N)=O)C(=O)N[C@@H](CC(=O)O)C(=O)N[C@@H](Cc1ccccc1)C(=O)N[C@H](C(=O)N[C@@H](CC(N)=O)C(=O)N[C@@H](Cc1c[nH]c2ccccc12)C(=O)N[C@@H](CC(C)C)C(=O)N[C@@H](CC(C)C)C(=O)N[C@@H](C)C(=O)N[C@@H](CCC(N)=O)C(=O)N[C@@H](CCCCN)C(=O)N1CCC[C@H]1C(=O)N[C@@H](CO)C(=O)N[C@@H](CO)C(=O)NCC(=O)N[C@@H](C)C(=O)N1CCC[C@H]1C(=O)N1CCC[C@H]1C(=O)N1CCC[C@H]1C(=O)N[C@@H](CO)C(=O)O)C(C)C)[C@@H](C)CC) [AT639],0,66.8,100,7.2
[Aib]ETFISDYSIAMDKIK(C16 diacid)QQDFVNWLLAQKPSSGAPPPS-OH (N-terminus assumed; SMILES CC[C@H](C)[C@H](NC(=O)[C@H](CO)NC(=O)[C@H](Cc1ccc(O)cc1)NC(=O)[C@H](CC(=O)O)NC(=O)[C@H](CO)NC(=O)[C@@H](NC(=O)[C@H](Cc1ccccc1)NC(=O)[C@@H](NC(=O)[C@H](CCC(=O)O)NC(=O)C(C)(C)N)[C@@H](C)O)[C@@H](C)CC)C(=O)N[C@@H](C)C(=O)N[C@@H](CCSC)C(=O)N[C@@H](CC(=O)O)C(=O)N[C@@H](CCCCN)C(=O)N[C@H](C(=O)N[C@@H](CCCCNC(=O)CCCCCCCCCCCCCCC(=O)O)C(=O)N[C@@H](CCC(N)=O)C(=O)N[C@@H](CCC(N)=O)C(=O)N[C@@H](CC(=O)O)C(=O)N[C@@H](Cc1ccccc1)C(=O)N[C@H](C(=O)N[C@@H](CC(N)=O)C(=O)N[C@@H](Cc1c[nH]c2ccccc12)C(=O)N[C@@H](CC(C)C)C(=O)N[C@@H](CC(C)C)C(=O)N[C@@H](C)C(=O)N[C@@H](CCC(N)=O)C(=O)N[C@@H](CCCCN)C(=O)N1CCC[C@H]1C(=O)N[C@@H](CO)C(=O)N[C@@H](CO)C(=O)NCC(=O)N[C@@H](C)C(=O)N1CCC[C@H]1C(=O)N1CCC[C@H]1C(=O)N1CCC[C@H]1C(=O)N[C@@H](CO)C(=O)O)C(C)C)[C@@H](C)CC) [AT640],0,7.08,90,8.2
